# From US20130302250A1 (published 2013)
# What was measured:
# human serum albumin [1] = target: T1, human serum albumin (human, UniProt P02768 25-609); test: SPR (BIAcore), pH 7.4
# T1 construct: also called HSA; HAS
# rat serum albumin [2] = target: T2, rat serum albumin (rat, UniProt P02770 25-608); test: SPR (BIAcore), pH 7.4
# T2 construct: also called RSA; rat albumin
# mouse serum albumin [3] = target: T3, mouse serum albumin (mouse, UniProt P07724 25-608); test: SPR (BIAcore), pH 7.4
# T3 construct: also called MSA; mouse albumin
# human serum albumin [4] = target: T1, human serum albumin; test: SPR (BIAcore), pH 6.0
# rat serum albumin [5] = target: T2, rat serum albumin; test: SPR (BIAcore), pH 6.0
# mouse serum albumin [6] = target: T3, mouse serum albumin; test: SPR (BIAcore), pH 6.0
# T2 sequence (P02770 25-608 limits assumed): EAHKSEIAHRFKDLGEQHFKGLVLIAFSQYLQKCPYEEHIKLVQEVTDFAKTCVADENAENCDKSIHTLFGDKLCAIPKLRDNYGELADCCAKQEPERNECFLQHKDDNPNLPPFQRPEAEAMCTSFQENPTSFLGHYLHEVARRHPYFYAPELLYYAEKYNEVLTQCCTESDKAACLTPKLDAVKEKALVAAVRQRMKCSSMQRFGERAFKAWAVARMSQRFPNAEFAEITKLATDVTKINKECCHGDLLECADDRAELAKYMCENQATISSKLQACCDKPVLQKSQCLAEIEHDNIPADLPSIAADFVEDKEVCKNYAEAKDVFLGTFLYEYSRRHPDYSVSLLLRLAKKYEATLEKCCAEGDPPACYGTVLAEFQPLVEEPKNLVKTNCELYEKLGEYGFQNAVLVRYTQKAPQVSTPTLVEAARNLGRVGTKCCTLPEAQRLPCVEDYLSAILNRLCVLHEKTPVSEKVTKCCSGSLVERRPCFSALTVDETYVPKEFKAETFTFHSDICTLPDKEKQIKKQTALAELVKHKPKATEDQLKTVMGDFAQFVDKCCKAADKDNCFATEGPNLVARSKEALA
# T3 sequence (P07724 25-608 limits assumed): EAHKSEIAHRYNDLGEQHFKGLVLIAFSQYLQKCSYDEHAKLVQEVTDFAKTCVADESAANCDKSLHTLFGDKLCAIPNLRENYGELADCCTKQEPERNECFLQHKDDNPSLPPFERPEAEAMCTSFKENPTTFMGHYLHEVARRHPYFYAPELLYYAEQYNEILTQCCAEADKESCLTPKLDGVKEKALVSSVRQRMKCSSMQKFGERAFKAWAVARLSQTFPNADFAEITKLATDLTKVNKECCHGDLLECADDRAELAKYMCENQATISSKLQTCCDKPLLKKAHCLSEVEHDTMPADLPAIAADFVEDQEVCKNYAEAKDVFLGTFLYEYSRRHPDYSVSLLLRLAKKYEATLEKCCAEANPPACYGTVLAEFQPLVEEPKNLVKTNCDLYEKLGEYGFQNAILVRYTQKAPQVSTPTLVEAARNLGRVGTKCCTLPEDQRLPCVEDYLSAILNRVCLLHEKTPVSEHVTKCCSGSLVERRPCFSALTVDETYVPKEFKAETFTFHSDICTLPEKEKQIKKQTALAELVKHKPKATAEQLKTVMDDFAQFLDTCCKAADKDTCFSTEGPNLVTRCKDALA
Binder,% Surface Active (human serum albumin [1]) [%],% Surface Active (rat serum albumin [2]) [%],% Surface Active (mouse serum albumin [3]) [%],% Surface Active (human serum albumin [4]) [%],% Surface Active (rat serum albumin [5]) [%],% Surface Active (mouse serum albumin [6]) [%]
"E06 (VNAR, Shark (Squalus acanthias) VNAR single domain, type IV; tested as monomeric 6xHis-tagged protein; also called E06-AAA-6xHis; VNAR clone E06) VNAR: TRVDQTPRTATRETGESLTINCVLTDTSYPLYSTYWYRKNPGSSNKEQISISGRYVESVNKGTKSFSLRIKDLTVADSATYICRAMGTNIWTGDGAGTVLTVNA",85.3,88.4,85.2,49.6,39.5,34.2
"huE06 v1.1 (VNAR, Humanized VNAR; also called humanized E06 variant 1.1) VNAR: TRVDQSPSSLSASVGDRVTITCVLTDTSYPLYSTYWYQQKPGSSNKEQISISGRYSESVNKGTKSFTLTISSLQPEDFATYYCRAMGTNIWTGDGAGTKVEIKH",77.8,72.9,78.2,29,17.4,16.3
"huE06 v1.10 (VNAR, Humanized VNAR; also called hE06v1.10) VNAR: TRVDQSPSSLSASVGDRVTITCVLTDTSYPLYSTYWYRKNPGSSNKEQISISGRYSESVNKGTKSFTLTISSLQPEDFATYYCRAMGTNIWTGDGAGTKVEIKH",79.8,79.3,78.2,39.3,27.4,24.5
